Reference: the supplement of paper PMC12636428

System: Saccharomyces cerevisiae
Assay: transcriptional activation domain activity (GFP:mCherry ratio, weighted mean of sorted bins, harmonized to initial dataset scale) (arbitrary fluorescence ratio units); higher = stronger transcriptional activation
Conditions: beta-estradiol 1 µM; induction time 4 h
In short: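 Sorting into 8 bins by GFP:mCherry ratio followed a 4-hour hold at 30 °C after cultures were diluted 1:5 into SC with 1 uM beta-estradiol. The yeast diploids carried a GFP reporter and had barcoded protein tiles, fused to an estradiol-inducible synthetic transcription factor, integrated at URA3. Barcodes were then sequenced, and tiles with under 50 reads were removed. Activation activity is the read-weighted mean of bin median fluorescence, averaged across barcodes and linearly mapped onto the initial dataset scale.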

Row | Sequence | transcriptional activation domain activity
1 | SLQEIDKMRVDGKFVDSEGIGRRPICVSSSILKQVLLYLLRRCYGLIYRLLSS | 33800
2 | PNDDFLLDCEEWGLNQLFGDEQFSNNINDLSDDLLALIPDWSFIPPSEDPWGL | 147000
3 | ILLPIFGLANRDKNVELMRWALKQCNRTLRRKRAHIWYFSRWLMRPMLPQQRS | 66600
4 | MLHLAALSPLMLLVFLLFSLFFKFFATFIWLYIMAYILITTLIIVFRITLPAN | 68500
5 | VAACLVNWDMKAAFVCVQSGNLKGVQALSALLGYVQIYYVQWLCAIVIAILYI | 60000
6 | MLRDYWLILIVNCQTIGCKLPIVMWSPLCLFLTLNHGLLWLWMCLALRFFSLF | 35000
7 | MAQVAVFLVHKVLYGIIPLFEIQTCAYFPLLVSLWHLNYMLFYVVMFMRLIIL | 45300
8 | WLAHSKKKDCDVCKHPYSFNKVYSPDMPARLPPVLLLRHLAKQLFFTVLFSIR | 76900
9 | KGGASPEDASAQSGGSRSKEAKETGSSPTGGKVGNSGGKSSSSSGGPEEKNKD | 35600
10 | YAEWLLQPEQHNGTWVADVLWPAINLDLQWISQHWNESSWDLWWSPVWAGSYW | 66400
11 | VYTVMILSTIFGICYVPFGVFICDSLKAYPGEVTNCSHQMQNLATIFFILFSV | 57000
12 | MLPHCIVIIGILFSLLSDVYLYLESSLIHKVHLSSIPGTLLWHPAFFLCILCK | 55800
13 | EIKEATGEEHQEEQEDAIDSKEKVVMQSCPEVSLRRIRRLLRKHKGDPNKVID | 27300
14 | SREFLWVGFGVRCMVLAKFQVIKGLKYIRTIIAQKNQSAGLAIELRILMVVWV | 43800
15 | MKTPPPQLGFFVGVLVLYAFFFIFLFFYFLFYGDIHLKQEDIIYVWNTYWAIW | 20200
16 | ELLESTEREGGRGLRPAKAEVREGGLDGVVGGLEDLRGGRVSGRKLVYRVGTE | 35700
17 | KQYCVRPNSGRIEPGKEVDVQVLLQAMKEDPPLDAKCRDKFLVQSVAVTADKE | 27100
18 | LFSLCFSEICTLFLLLMCQGIDLLDPGVRLINWKVSLWLLLATILVFIPLSYS | 43900
19 | PFLLYTSGFLFMGATEEQMNLLTSAGVSHVSYILLLYSISFLLFLFVCMLLHL | 33400
20 | SSQTPVLLWIIHFILPNLCILLYFTLQLIYLLRHHKSKWLIGDLVHSYCFYFI | 81000
21 | YPVGKQVLARYPETTTFYRAEVMGTKRDGTCRLKFEGEEEVGKETEVERRLVL | 77100
22 | TKPAEASAADKKPEEAKPAEAPAPAAAPAAAEAPKAEEKPAPAPAPTEAPKAE | 21400
23 | DSSEEDSEDEKPKAVQVKAIAKASSSSDSDDSSSEDDAPSKSVVAAAKKVSPS | 22200
24 | KADDGGGDEAEKPKKATSKKPKKENDDAMDVDEEAQERPKPKPRPKPKPKAKE | 22000
25 | IYIFPINTTIASFALGYLSIFYLIYAILTVLPTFFFDCPYGTPFSALMWRISH | 62300
26 | KEVASADTKPADAPAGEAKAPKKEKKEKEKKPAEAAEGGKKKEKAAGGGGKAA | 36100
27 | ASASREKGKGKGREEEKKEGESKGKEKGRKEEEKGGEEKGGEEEDDEDEDEDE | 30900
28 | FFLLIALLPAWVVGFCIVFSIAMSCAAYDTLQVSLVATVSNDLFRNKISIWWV | 42000

Row | Sequence | transcriptional activation domain activity
29 | EAKEGEDGEKEKPKRGRKRKEPAADAEDEAADGDAADGEEPPAKKAKPASKAA | 61800
30 | LKIKLLVVWFWLLDAIHICMLCSSNWRDLIVHYGDRRTLDYIPPTTALAILFT | 79600
31 | MIIYYIGSIFWCLGNLQVGGFFGFDGIWSYCIFWRNWVRDVFGLSVLIGVVNY | 44900
32 | AAAKPVATKSSSKAKTPAAASISKSKAKPVAAAARGGGKKRKVASSPAPSVVA | 9030
33 | RWINSTIHNLFEVVMLPDLCGFCCFSMRFVVLLDLIGTLSLPVSFVYLVYLIY | 64400
34 | TEQSVFVGLLLYRLKYPANLVSLVLKLSAVQSTLFKVVFAVYLLVWWGIKQAR | 63100
35 | LLVLFACQIICETIVIGITSNAFSVVVLPPYFTGCLPGNIKPFAWVYWLPMLL | 59400
36 | HKRRRDSVMMDYDLSNFFSSRQLDISKVLNGTEQNNSHVNDDVLTLSFPGETD | 35100
37 | PAHSLLELIQLMKRKAFVCWYLFTIVIVLLLLLWIFLSVNYFHCIKPINFNTD | 34800
38 | LEDNAAPASAPAAEEKPVEKAPEEKPEKKEEPQKEEPKKEDAKQAAPKSGASQ | 46100
39 | TSQCSISLYHYLIMYHMTLLGVATSVLALVLVCNPAEFLISSSVRLGFIWFCI | 73700
40 | LSTLFYIFCRYALVANFLYSLSIIKGSHIINCDIGYMICGVLSIFGHIGIIAV | 49800
41 | ILCLSFSIKVLLCFLLIFFPLNVEPPPPDFFFHFLCLWFFFVISFLRFHLLYF | 59900
42 | VCKLLRLETLRWIFREFHWKLHLRKRFLPYHLLTYMRTLRITANNSIKHLSFN | 41000
43 | ACVALVVLFADSLDDLIPGWGIVAWKIVCGFILVPLGFLPLRLLSFTSILGVM | 58500
44 | GRNAGREDNSNNRNRRGDRRGAPREARAGGNTNGQQQQQQKKGGAPKAAAVDP | 35600
45 | GSTQAVDLIAYGGYKFVGVITTLISGFEFLHLGRSIYTMVFLYSFLSNAFFLL | 63600
46 | FFNILILQWRRIRCCKVVSTSLCLENTLGVAQLFVQFVLFTLIFILYMIYFPP | 48300
47 | VWVCGFLVVYLFYTWGVLSFVFFQMLINHLSFINLFFFYILSSFIGGLTLNFF | 51200
48 | VGIKVAEDKQQEMRDAGRRTRGARLSSFGNALVIGGGRLSDGYVGTRELKTHV | 50500
49 | FPTLGFVVDRYFRVTNFVPETFWSIKVVHKKDSINVNFNWKRGHLFDRMTVTV | 71400
50 | AEDRYIMELFVEDFICLAISGGPRLPVERAVSSWMVRILLSIQIRNYMQGNRQ | 44500
51 | PTLLVALLALLIPHILIFIAKKINTIMTLSALHDRLMIRYYKFLVINVLVFFC | 39300
52 | ESEKAGGKRKQERRSRAGRGEGEGEERENRCRGEEGRGREGGGRREGKEGVGG | 39400
53 | SAFGSSANAPTSGGFGAFGQPVAAAATTSAFGSTTPFGAAAPSPAAPAAAASP | 25700
54 | MHASFIFLSSTSGVIHTYILYLDLVAYFLLSLGGFVLIIGFWRWGFCCFFLPS | 69100
55 | TNLYDHAVTPEILLEQLAYVDNFIPSLDNEFSNVDWNVNTTHNNANNNGADTF | 47300
